Experimental data from publication PMC12485133.

Legend:
[1] = target: N-myristoylated human Arf1 bound to GTPγS, anchored on nanodiscs (myrArf1·GTPγS) (human) (UniProt P84077)
[2] = target: N-myristoylated human Arf1 bound to GTPγS, anchored on nanodiscs (myrArf1·GTPγS) (human) (UniProt P84077); test: not stated; binding of PH variants and Arf variants compared with wild type (Fig. SI8 and Table SI1); the method is not given

N-myristoylated human Arf1 bound to GTPγS, anchored on nanodiscs (myrArf1·GTPγS) (human), sequence (P84077 whole entry): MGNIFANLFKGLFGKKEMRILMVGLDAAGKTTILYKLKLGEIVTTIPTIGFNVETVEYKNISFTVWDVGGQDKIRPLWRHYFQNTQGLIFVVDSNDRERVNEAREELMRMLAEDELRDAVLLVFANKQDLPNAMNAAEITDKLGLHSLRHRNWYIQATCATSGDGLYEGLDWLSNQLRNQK

fold decrease in GAP activity compared with wild type (C50 of PZA, Fig. 7C) [1]: 100 fold | fold reduction of binding against wild type [2]: 2 fold
Substance: ASAP1 PH domain Lys391Ala (from UniProt Q9QWY8 325-451) (domain or fragment)
